Data reported in publication PMC4005458, “Brassinosteroids control root epidermal cell fate via direct regulation of a MYB-bHLH-WD40 complex by GSK3-like kinases” (eLife, 2014).

T1: GST-fused EGL3 (Arabidopsis, UniProt Q9CAD0 1-596)
T1 construct: also called EGL3-GST; source: E. coli BL21 (DE3) pLySs, purified (glutathione resin)
T1 sequence (looked up): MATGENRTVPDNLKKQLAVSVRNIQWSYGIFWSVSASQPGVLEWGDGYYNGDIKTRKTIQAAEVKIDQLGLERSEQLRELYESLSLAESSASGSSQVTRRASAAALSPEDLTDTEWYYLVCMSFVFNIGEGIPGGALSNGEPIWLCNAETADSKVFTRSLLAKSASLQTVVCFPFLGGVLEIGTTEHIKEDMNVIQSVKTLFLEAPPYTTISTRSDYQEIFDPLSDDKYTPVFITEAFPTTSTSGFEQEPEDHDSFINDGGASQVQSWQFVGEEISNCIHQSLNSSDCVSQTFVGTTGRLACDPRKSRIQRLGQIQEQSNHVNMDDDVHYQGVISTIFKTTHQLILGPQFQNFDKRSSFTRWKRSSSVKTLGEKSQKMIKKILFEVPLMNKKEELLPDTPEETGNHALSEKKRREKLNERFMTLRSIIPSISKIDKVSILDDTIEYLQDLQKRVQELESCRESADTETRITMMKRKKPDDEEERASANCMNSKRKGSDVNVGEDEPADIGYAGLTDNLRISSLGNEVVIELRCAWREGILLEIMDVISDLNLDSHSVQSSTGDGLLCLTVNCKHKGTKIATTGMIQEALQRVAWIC

B1: His-fused BIN2 (enzyme, Arabidopsis, UniProt Q39011 1-380, looked up)
chain: MADDKEMPAAVVDGHDQVTGHIISTTIGGKNGEPKQTISYMAERVVGTGSFGIVFQAKCLETGETVAIKKVLQDRRYKNRELQLMRVMDHPNVVCLKHCFFSTTSKDELFLNLVMEYVPESLYRVLKHYSSANQRMPLVYVKLYMYQIFRGLAYIHNVAGVCHRDLKPQNLLVDPLTHQVKICDFGSAKQLVKGEANISYICSRFYRAPELIFGATEYTTSIDIWSAGCVLAELLLGQPLFPGENAVDQLVEIIKVLGTPTREEIRCMNPHYTDFRFPQIKAHPWHKIFHKRMPPEAIDFASRLLQYSPSLRCTALEACAHPFFDELREPNARLPNGRPFPPLFNFKQEVAGSSPELVNKLIPDHIKRQLGLSFLNQSGT
notes: BIN2 (BRASSINOSTEROID … 2), GSK3-like kinase of Arabidopsis, cloned into the PET28a vector; Primers are in Supplementary file 1; also called BIN2-His; source: E. coli BL21 (DE3) pLySs, purified (Ni-NTA agarose)
B2: TRANSPARENT TESTA GLABRA1 (TTG1) fused to GST (natural protein, Arabidopsis, UniProt Q9XGN1 1-341, looked up)
chain: MDNSAPDSLSRSETAVTYDSPYPLYAMAFSSLRSSSGHRIAVGSFLEDYNNRIDILSFDSDSMTVKPLPNLSFEHPYPPTKLMFSPPSLRRPSSGDLLASSGDFLRLWEINEDSSTVEPISVLNNSKTSEFCAPLTSFDWNDVEPKRLGTCSIDTTCTIWDIEKSVVETQLIAHDKEVHDIAWGEARVFASVSADGSVRIFDLRDKEHSTIIYESPQPDTPLLRLAWNKQDLRYMATILMDSNKVVILDIRSPTMPVAELERHQASVNAIAWAPQSCKHICSGGDDTQALIWELPTVAGPNGIDPMSVYSAGSEINQLQWSSSQPDWIGIAFANKMQLLRV
notes: TTG1 (TRANSPARENT TESTA GLABRA1), WD40 repeat protein of Arabidopsis; The methods describe the cloning of only EGL3 into pGEX4T-1; the making of TTG1-GST is not described; also called TTG1-GST; source: recombinant, purified
B3: WEREWOLF (WER) fused to GST (natural protein, Arabidopsis, UniProt Q9SEI0 1-203, looked up)
chain: MRKKVSSSGDEGNNEYKKGLWTVEEDKILMDYVKAHGKGHWNRIAKKTGLKRCGKSCRLRWMNYLSPNVKRGNFTEQEEDLIIRLHKLLGNRWSLIAKRVPGRTDNQVKNYWNTHLSKKLGIKDQKTKQSNGDIVYQINLPNPTETSEETKISNIVDNNNILGDEIQEDHQGSNYLSSLWVHEDEFELSTLTNMMDFIDGHCF
notes: WER (WEREWOLF), R2R3 MYB-domain transcription factor of Arabidopsis; The methods describe the cloning of only EGL3 into pGEX4T-1; the making of WER-GST is not described; also called WER-GST; source: recombinant, purified

How the values were obtained:
GST-fused EGL3 = biological target: T1, GST-fused EGL3; assay: pull-down; GST fusions bound to GST resin, BIN2-His added, 2 hr at 4°C; 10 mM phosphate buffer pH 7.4, 140 mM NaCl, 3 mM KCl, 0.1% Triton X-100; immunoblot with anti-His antibody; details: both partners purified
His-fused BIN2 = biological target: B1; assay: as above; details: both partners purified

Row | binding result (GST-fused EGL3) | binding result (His-fused BIN2) | Binder
1 | binds |  | B1
2 |  | binds | B2
3 |  | binds | B3
